This is an account of results in patent publication US8106020B2, “Calcium receptor activator” (Ajinomoto Co., Inc., priority 2005, dated 2012).

Starred links: 1 amine or outer side, 2 acyl side, 3 side chain; linkers in the order of their positions; H or OH if unused. Non-standard residues stand in square brackets, D forms with d. No end group written: not given here. Cys(S-allyl) = S-allylcysteine, C=CCSC[C@H](N[*:1])C(=O)[*:2]; Cys(S-Me) = S-methylcysteine, CSC[C@H](N[*:1])C(=O)[*:2]; γGlu = O=C(O)[C@H](CCC(=O)[*:2])N[*:1]; Tau = Taurine, O=S(=O)(CCN[*:1])[*:2]; Tle = CC(C)(C)[C@H](N)C(=O)O; Orn = NCCC[C@H](N)C(=O)O; Abu = CC[C@H](N)C(=O)O

One experiment concerns the target T1, human calcium receptor (Homo sapiens, UniProt P41180).
T1 construct: expressed in transfected cells; host or cells: Xenopus laevis oocytes microinjected with cRNA; gene amplified by PCR from human kidney cDNA (Clontech) and cloned in pBR322
T1 sequence (P41180 20-1078): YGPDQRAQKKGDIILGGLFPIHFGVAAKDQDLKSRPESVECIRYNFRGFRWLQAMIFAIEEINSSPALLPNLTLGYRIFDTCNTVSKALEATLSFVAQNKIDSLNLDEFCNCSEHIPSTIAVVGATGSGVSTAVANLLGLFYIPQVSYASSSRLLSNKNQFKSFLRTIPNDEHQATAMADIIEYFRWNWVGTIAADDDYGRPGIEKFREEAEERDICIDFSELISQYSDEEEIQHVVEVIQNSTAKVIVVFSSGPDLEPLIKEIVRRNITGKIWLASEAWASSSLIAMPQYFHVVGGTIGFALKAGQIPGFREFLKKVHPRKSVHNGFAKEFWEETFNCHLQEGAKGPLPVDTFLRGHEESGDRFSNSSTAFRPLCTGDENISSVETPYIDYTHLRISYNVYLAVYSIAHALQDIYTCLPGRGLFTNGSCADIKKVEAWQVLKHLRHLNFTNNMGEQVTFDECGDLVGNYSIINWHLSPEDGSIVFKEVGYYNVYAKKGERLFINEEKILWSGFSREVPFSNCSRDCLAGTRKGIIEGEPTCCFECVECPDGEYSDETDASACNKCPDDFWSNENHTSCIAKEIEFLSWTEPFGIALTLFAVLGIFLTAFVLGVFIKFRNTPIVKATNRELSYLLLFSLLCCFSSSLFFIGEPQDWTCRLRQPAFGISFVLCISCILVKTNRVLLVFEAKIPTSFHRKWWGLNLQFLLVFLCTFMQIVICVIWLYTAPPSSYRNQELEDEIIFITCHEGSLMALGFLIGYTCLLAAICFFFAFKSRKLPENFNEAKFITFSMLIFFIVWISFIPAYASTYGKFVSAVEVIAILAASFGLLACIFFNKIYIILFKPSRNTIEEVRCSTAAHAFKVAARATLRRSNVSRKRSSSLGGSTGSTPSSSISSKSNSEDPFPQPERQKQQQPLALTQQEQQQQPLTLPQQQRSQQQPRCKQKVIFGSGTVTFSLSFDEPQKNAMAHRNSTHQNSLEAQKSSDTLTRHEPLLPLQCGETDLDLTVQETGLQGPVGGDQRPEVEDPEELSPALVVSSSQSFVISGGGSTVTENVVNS
The experiment in a line: Calcium receptor activation activity: Ca ion concentration-dependent Cl ionic current in Xenopus laevis oocyte expression system. Type of experiment: cell-based. The settings on record: Ca ion concentration-dependent Cl response current; peptides added at 1000 to 0.1 μM; oocytes voltage-clamped at −70 mV. The procedure: To evaluate calcium receptor activation activity, a Ca ion concentration-dependent Cl ionic current measuring method using a Xenopus laevis oocyte expression system was used. If each activator is added to Xenopus laevis oocytes expressing the calcium receptor, intracellular Ca ions increase. Then, the Ca ion concentration-dependent Cl channel opens, and the intracellular current value changes as an ionic current. By measuring the change in this intracellular current value, the presence or absence of calcium receptor activation activity can be determined.
Specifically, the abdomen of Xenopus laevis was opened, and an egg batch was taken out and treated with a 1% collagenase solution at 20° C. for 2 hours to obtain individual oocytes. Into the oocytes, 50 nl of 1 μg/μl receptor cRNA or 50 nl of sterilized water per oocyte was introduced by using a micro glass capillary, and the oocytes were cultured at 18° C. for 2 or 3 days. For the culture, a solution obtained by adding 2 mM pyruvic acid, 10 U/ml of penicillin, and 10 μg/ml of streptomycin to the solution in Example 2 was used. After the culture, a test solution was added to the oocytes containing either the cRNA or sterilized water. Electrophysiological measurement was performed by using an amplifier, Geneclamp500 (Axon), and recording software, AxoScope 9.0 (Axon). The oocytes were voltage-clamped at −70 mV by the double electrode voltage clamp method, and the intracellular current was measured via the Ca ion concentration-dependent Cl ion channel. The maximum value of the intracellular current was considered as the response current value.
Calcium receptor activation activity of L-amino acids was evaluated by using the method described in Example 6. That is, oocytes containing either cRNA of the calcium receptor or sterilized water were prepared, and voltage-clamped at −70 mV by the double electrode voltage clamp method. To the voltage-clamped oocytes, alanine (10 mM), arginine (10 mM), asparagine (10 mM), aspartic acid (10 mM), cysteine (10 mM), glutamine (10 mM), glutamic acid (10 mM), glycine (10 mM), histidine (10 mM), isoleucine (10 mM), leucine (10 mM), lysine (10 mM), methionine (10 mM), phenylalanine (10 mM), proline (10 mM), serine (10 mM), threonine (10 mM), tryptophan (10 mM), tyrosine (10 mM), valine (10 mM), ornithine (10 mM), taurine (10 mM), or hydroxyproline (10 mM) was added, and Ca ion concentration-dependent Cl response current was measured. […] As for the aforementioned amino acids, the activation activity was reported in Proc. Natl. Acad. Sci. USA, 2000 Apr. 25, 97(9):4814-9.
Calcium receptor activation activity of D-cysteine was evaluated by using the method described in Example 6. That is, oocytes containing either cRNA of the calcium receptor or sterilized water were prepared, and voltage-clamped at −70 mV by the double electrode voltage clamp method. To the voltage-clamped oocytes, D-cysteine (10 mM), L-cysteine (10 mM), D-tryptophan (10 mM), or L-tryptophan (10 mM) was added, and Ca ion concentration-dependent Cl response current was measured.
Calcium receptor activation activity of peptides was evaluated by using the method described in Example 6. That is, oocytes containing either cRNA of the calcium receptor or sterilized water were prepared, and voltage-clamped at −70 mV by the double electrode voltage clamp method.
Calcium receptor activation activity of peptides was evaluated in the same manner as that of Example 10. Each of the peptides shown in Table 2 was added to voltage-clamped oocytes at 1000 μM, 300 μM, 100 μM, 30 μM, 10 μM, 3 μM, 1 μM, 0.3 μM, and 0.1 μM, and Ca ion concentration-dependent Cl response current was measured.
Take γ-Glu-Ser-Gly ([γGlu]-Ser-Gly): the “Activity (lowest concentration for which current was detected)” value is 30 µM.
As for γ-Glu-Val-Pro ([γGlu]-Val-Pro), the “Activity (lowest concentration for which current was detected)” value came out at 30 µM.
The same measure, in the same setting: the figure for “γ-Glu-Cys(S-Me)-Gly ([γGlu]-[Cys(S-Me)]-Gly)” is 3 µM; for γ-Glu-γ-Glu-Val ([γGlu]-[γGlu]-Val) it is 1000 µM.
On the same count and under the same terms, the figure for γ-Glu-Val-Val ([γGlu]-Val-Val) is 1000 µM; for γ-Glu-Gly-Gly ([γGlu]-Gly-Gly) it is 30 µM; for γ-Glu-Tau ([γGlu]-[Tau]) it is 300 µM.
Still for that read-out and setting: the value for γ-Glu-t-Leu ([γGlu]-[Tle]) was 100 µM; that for γ-Glu-Val-Met ([γGlu]-Val-Met) was 1000 µM; that for γ-Glu-Val-Gln ([γGlu]-Val-Gln) was 10 µM.
Regarding γ-Glu-Val-Lys ([γGlu]-Val-Lys), the “Activity (lowest concentration for which current was detected)” value is 1000 µM.
The same measure, in the same setting: the figure for γ-Glu-Val-Arg ([γGlu]-Val-Arg) is 1000 µM; for γ-Glu-Val-Ser ([γGlu]-Val-Ser) it is 30 µM.
Still for that read-out and setting: the figure for γ-Glu-Val-Orn ([γGlu]-Val-[Orn]) is 100 µM; for γ-Glu-Val-Thr ([γGlu]-Val-Thr) it is 1000 µM; for γ-Glu-Val-Cys ([γGlu]-Val-Cys) it is 10 µM.
Consider γ-Glu-Val-Gly ([γGlu]-Val-Gly), for which the “Activity (lowest concentration for which current was detected)” value is 0.1 µM.
Take “γ-Glu-Cys(S-allyl)-Gly ([γGlu]-[Cys(S-allyl)]-Gly)”: the “Activity (lowest concentration for which current was detected)” value came out at 100 µM.
The same measure, in the same setting: the figure for γ-Glu-Val-Asn ([γGlu]-Val-Asn) is 30 µM; for γ-Glu-Val-Glu ([γGlu]-Val-Glu) it is 1000 µM; for γ-Glu-Val-Asp it is 1000 µM.
Same read-out and setting: the figure for γ-Glu-Abu-Gly ([γGlu]-[Abu]-Gly) is 3 µM; for γ-Glu-Val-His ([γGlu]-Val-His) it is 100 µM; for γ-Glu-Val-Phe ([γGlu]-Val-Phe) it is 30 µM.

Staying with this experiment, now noted: D-amino acid 10 mM; FIG. 3.
Take `N[C@H](CS)C(=O)O` [D-cysteine]: the “calcium receptor activation activity (Cl response current)” value (shortened to “calcium receptor activation activity”) is “definitive calcium receptor activation activity”.

The same experiment, now with this note: L-amino acid 10 mM; FIG. 2.
In the case of `N[C@@H](Cc1ccccc1)C(=O)O` [phenylalanine, reference compound], the “calcium receptor activation activity” value is “definite calcium receptor activation activity”.
The same measure, in the same setting: the value for `N[C@@H](Cc1ccc(O)cc1)C(=O)O` [tyrosine, reference compound] was “definite calcium receptor activation activity”; that for `N[C@@H](Cc1c[nH]cn1)C(=O)O` [histidine, reference compound] was “definite calcium receptor activation activity”.
The same measure, in the same setting: the value for `N[C@@H](CS)C(=O)O` [cysteine, reference compound] was “definite calcium receptor activation activity”; that for `N[C@@H](Cc1c[nH]c2ccccc12)C(=O)O` [tryptophan, reference compound] was “definite calcium receptor activation activity”.

Still in this experiment, the particulars now being: peptide 50 μM; FIG. 4.
For the molecule `N[C@@H](CCC(=O)N[C@@H](CS)C(=O)NCC(=O)O)C(=O)O` [γ-Glu-Cys-Gly], the “calcium receptor activation activity” value is recorded as “definitive calcium receptor activation activity”.
Still for that read-out and setting: the value for `N[C@@H](CCC(=O)N[C@@H](CSN=O)C(=O)NCC(=O)O)C(=O)O` [γ-Glu-Cys(SNO)-Gly] was “definitive calcium receptor activation activity”.

The experiment is the same for the next values; noted with them: peptide 500 μM; FIG. 4.
As to γ-Glu-Orn ([γGlu]-[Orn]), the “calcium receptor activation activity” value was “definitive calcium receptor activation activity”.

In the next experiment the test system is Parathyroid hormone (PTH). The experiment in a line: Pharmacological evaluation in rats: serum PTH after intravenous injection. Format: in vivo, rat. The following applies: 15 minutes after the administration; male Sprague-Dawley rats, 100 mg/ml in saline, 0.1 ml/100 g body weight, tail vein. The text has this:
The pharmacological effects of the peptides were confirmed by animal study. Parathyroid hormone (PTH) is one of the major proteins which relate to calcium homeostasis. Increase in PTH is directly responsible for hyperparathyroidism and hypoparathyroidism. It is known that PTH is secreted from the parathyroid gland, and its secretion is inhibited when the calcium receptor is activated. Male, 10 weeks old, Sprague-Dawley strain rats were used. “Rat Intact PTH ELISA KIT” (Immutopics) was used for measuring PTH according to the manufacturer's recommended protocol. 100 mg/ml of γ-Glu-Val-Gly was dissolved in physiological saline, and 0.1 ml/100 g body weight for each was injected through the tail vein. Blood was collected from the vein under the right clavicle, and blood serum was obtained by centrifugation. Each group consists of 3 rats, and PTH variation is shown below as average value±standard error. The result for the peptide-administered group was: 148±72.5 pg/ml before the administration and 9.44±2.94 pg/ml 15 minutes after the administration; meanwhile, the result for the control group (physiological saline administered group) was: 89.4±49.5 pg/ml before the administration and 41.1±11.6 pg/ml 15 minutes after the administration. As a result, PTH levels decreased as a result of the administration of the peptides.
With γ-Glu-Val-Gly ([γGlu]-Val-Gly), the “PTH in blood serum, average value±standard error” value amounted to 9.44 ± 2.94 pg/mL.

The same experiment, now with this note: before the administration; male Sprague-Dawley rats, 100 mg/ml in saline, 0.1 ml/100 g body weight, tail vein.
For γ-Glu-Val-Gly ([γGlu]-Val-Gly), the “PTH in blood serum, average value±standard error” value turned out to be 148 ± 72.5 pg/mL.
